Measured values as given in paper PMC5622320 (Nucleic Acids Research, 2017).

Molecular target: T1, stFlhD4C2 (Salmonella typhimurium, UniProt P0A2R2;O52222)
T1 sequence 1: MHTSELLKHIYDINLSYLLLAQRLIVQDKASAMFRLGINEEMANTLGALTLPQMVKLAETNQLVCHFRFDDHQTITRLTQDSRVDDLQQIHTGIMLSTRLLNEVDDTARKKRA
T1 sequence 2: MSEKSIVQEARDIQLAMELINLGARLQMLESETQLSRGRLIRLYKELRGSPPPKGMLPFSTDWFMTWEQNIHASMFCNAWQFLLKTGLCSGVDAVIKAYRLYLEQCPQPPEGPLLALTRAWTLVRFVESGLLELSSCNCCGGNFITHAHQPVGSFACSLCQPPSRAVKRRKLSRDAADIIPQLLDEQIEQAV
Assay: native gel or EMSA

B1: YdiV (natural protein)
chain: MKIFLENLYHSDCYFLPIRDNQQVLVGVELITHFSSEDGTVRIPTSRVIAQLTEEQHWQLFSEQLELLKSCQHFFIQHKLFAWLNLTPQVATLLLERDNYAGELLKYPFIELLINENYPHLNEGKDNRGLLSLSQVYPLVLGNLGAGNSTMKAVFDGLFTRVMLDKSFIQQQITHRSFEPFIRAIQAQISPCCNCIIAGGIDTAEILAQITPFDFHALQGCLWPAVPINQITTLVQR
Question: Does B1 bind?
Answer: binds
